# T1: DNA polymerase iota catalytic core (UniProt Q9UNA4 26-443)
# T1 sequence: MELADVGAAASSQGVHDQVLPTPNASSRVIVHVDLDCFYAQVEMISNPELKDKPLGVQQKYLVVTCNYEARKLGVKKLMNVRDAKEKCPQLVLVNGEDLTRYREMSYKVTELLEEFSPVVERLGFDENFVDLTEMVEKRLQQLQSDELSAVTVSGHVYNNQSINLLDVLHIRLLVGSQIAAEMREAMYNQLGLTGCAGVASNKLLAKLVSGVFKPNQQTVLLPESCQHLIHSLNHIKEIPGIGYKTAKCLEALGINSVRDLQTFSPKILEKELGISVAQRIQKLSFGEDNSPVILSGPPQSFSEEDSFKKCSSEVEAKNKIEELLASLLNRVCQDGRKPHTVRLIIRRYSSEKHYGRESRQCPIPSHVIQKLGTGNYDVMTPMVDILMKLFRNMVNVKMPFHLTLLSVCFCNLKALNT
# B1: self-annealed 18-mer substrate DNA, template A (dsDNA)
# DNA 1: TCAAGGGTCCTAGGACCC
# DNA 2: TCAAGGGTCCTAGGACCC
# B2: product DNA formed in crystallo from 18-mer plus dTTP (dsDNA)
# DNA 1: TCAAGGGTCCTAGGACCCT
# DNA 2: TCAAGGGTCCTAGGACCCT
# B3: self-annealed 19-mer product DNA (pre-translocation) (dsDNA)
# DNA 1: TCAAGGGTCCTAGGACCCT
# DNA 2: TCAAGGGTCCTAGGACCCT
# B4: self-annealed 17-mer product DNA (post-translocation) (dsDNA)
# DNA 1: TCAAGGGTCCGGACCCT
# DNA 2: TCAAGGGTCCGGACCCT
# How the values were obtained:
# [1] = biological target: T1, DNA polymerase iota catalytic core; experiment: X-ray crystallography
# [2] = biological target: T1, DNA polymerase iota catalytic core; experiment: time-lapse X-ray crystallography
# [3] = biological target: T1, DNA polymerase iota catalytic core; experiment: X-ray crystallography; remark: listed apart in the source
# [4] = biological target: T1, DNA polymerase iota catalytic core; experiment: X-ray crystallography; remark: listed apart in the source
binder,measurement,setting,value
B1,binding result,[1],binds
B2,binding result,[2],binds
B3,binding result,[3],binds
B4,binding result,[4],binds
